From US9949464 come the findings set out here.

For this assay, the target named is green fluorescent protein (GFP), EGFP expressed from pCAG-GFP [GFP: P42212]. Kind of assay: cell-based or functional assay.

For the substance “CRE-DOG (Cre-recombinase Dependent on GFP), GBP2+GBP7 combination: N-CreintG with C-CreintG”, the induction of recombination of a floxed luciferase reporter in 293T cells lay within 20 to 60 fold.
